Measured values from publication PMC9892613.
Values joined by “and” are separate entries in the source; they are usually repeats but may differ in a detail not shown here. Equal values may be shown once.

Legend:
[1] = target: HIV-1 capsid protein p24 (His-p24) (HIV-1) (UniProt P12493); test: BLI; in the same nanobody storage buffer (Fig. S5)
[2] = target: HIV-1 capsid protein p24 (His-p24) (HIV-1) (UniProt P12493); test: ITC; nanobody (200 uM, syringe) titrated into His-p24 (12.5 uM, cell); 10 mM phosphate pH 8, 25 mM NaCl; 25.1 C; at least triplicate

B1: nanobody 59H10 (VHH)
VHH: DVQLQESGGGLVQAGGSLRLSCAASGSISRFNAMGWWRQAPGKEREFVARIVKGFDPVLADSVKGRFTISIDSAENTLALQMNRLKPEDTAVYYCFAALDTAYWGQGTQVTVSS
How did the Kd [1] turn out when B1 was run?
Its Kd is 0.77 nM.

And the dH [2]?
Its dH is -3.9 kcal/mol.

B2: nanobody 37E7 (VHH)
VHH: DVQLQESGGGLVQAGGSLRLSCAASGSISRFNAMGWWRQAPGKEREFVARIVKGGYAVLADSVKGRFTISIDSAENTLALQMNRLKPEDTAVYYCFAALDTAYWGQGTQVTVSS
For B2, which Kd [1] is on record?
The Kd was 9.6 nM.

And the dH [2]?
The dH was -4.1 kcal/mol and -4.09 kcal/mol.
